What follows are sequences tested on HeLa Kyoto (assay: thermal stability score vs G1/S (z-score of summed log2 fold changes over temperatures); higher = more thermally stable than in G1/S). Conditions: cell cycle stage: early G1 (4.5 h after nocodazole release).
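Wherever melting temperature (median over replicates), in situ is given: HeLa Kyoto cells synchronized by double thymidine or nocodazole block, proteins quantified by TMT10plex mass spectrometry, three independent biological replicates.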
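Wherever solubility in G1/S (NP-40 vs SDS abundance) is given: HeLa Kyoto cells arrested at G1/S by double thymidine block, proteins quantified by TMT10plex mass spectrometry in mild NP-40 versus SDS extracts, three biological replicates.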
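Wherever thermal stability score vs G1/S (z-score of summed log2 fold changes over temperatures) is given: synchronized HeLa Kyoto cells, proteins quantified by TMT10plex mass spectrometry, three biological replicates, mitosis taken 0.5 h after nocodazole release, G1/S directly after double thymidine block.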

In order of rising thermal stability score:
1. MAGRVPSLLVLLVFPSSCLAFRSPLSVFKRFKETTRPFSNECLGTTRPVVPIDSSDFALDIRMPGVTPKQSDTYFCMSMRIPVDEEAFVIDFKPRASMDTVHHMLLFGCNMPSSTGSYWFCDEGTCTDKANILYAWARNAPPTRLPKGVGFRVGGETGSKYFVLQVHYGDISAFRDNNKDCSGVSLHLTRLPQPLIAGMYLMMSVDTVIPAGEKVVNSDISCHYKNYPMHVFAYRVHTHHLGKVVSGYRVRNGQWTLIGRQSPQLPQAFYPVGHPVDVSFGDLLAARCVFTGEGRTEATHIGGTSSDEMCNLYIMYYMEAKHAVSFMTCTQNVAPDMFRTIPPEANIPIPVKSDMVMMHEHHKETEYKDKIPLLQQPKREEEEVLDQGDFYSLLSKLLGEREDVVHVHKYNPTEKAESESDLVAEIANVVQKKDLGRSDAREGAEHERGNAILVRDRIHKFHRLVSTLRPPESRVFSLQQPPPGEGTWEPEHTGDFHMEEALDWPGVYLLPGQVSGVALDPKNNLVIFHRGDHVWDGNSFDSKFVYQQIGLGPIEEDTILVIDPNNAAVLQSSGKNLFYLPHGLSIDKDGNYWVTDVALHQVFKLDPNNKEGPVLILGRSMQPGSDQNHFCQPTDVAVDPGTGAIYVSDGYCNSRIVQFSPSGKFITQWGEESSGSSPLPGQFTVPHSLALVPLLGQLCVADRENGRIQCFKTDTKEFVREIKHSSFGRNVFAISYIPGLLFAVNGKPHFGDQEPVQGFVMNFSNGEIIDIFKPVRKHFDMPHDIVASEDGTVYIGDAHTNTVWKFTLTEKLEHRSVKKAGIEVQEIKEAEAVVETKMENKPTSSELQKMQEKQKLIKEPGSGVPVVLITTLLVIPVVVLLAIAIFIRWKKSRAFGDSEHKLETSSGRVLGRFRGKGSGGLNLGNFFASRKGYSRKGFDRLSTEGSDQEKEDDGSESEEEYSAPLPALAPSSS [PAM]  -1.73
2. MSGTRASNDRPPGAGGVKRGRLQQEAAATGSRVTVVLGAQWGDEGKGKVVDLLATDADIISRCQGGNNAGHTVVVDGKEYDFHLLPSGIINTKAVSFIGNGVVIHLPGLFEEAEKNEKKGLKDWEKRLIISDRAHLVFDFHQAVDGLQEVQRQAQEGKNIGTTKKGIGPTYSSKAARTGLRICDLLSDFDEFSSRFKNLAHQHQSMFPTLEIDIEGQLKRLKGFAERIRPMVRDGVYFMYEALHGPPKKILVEGANAALLDIDFGTYPFVTSSNCTVGGVCTGLGIPPQNIGDVYGVVKAYTTRVGIGAFPTEQINEIGGLLQTRGHEWGVTTGRKRRCGWLDLMILRYAHMVNGFTALALTKLDILDVLGEVKVGVSYKLNGKRIPYFPANQEMLQKVEVEYETLPGWKADTTGARRWEDLPPQAQNYIRFVENHVGVAVKWVGVGKSRESMIQLF [ADSSL1]  -1.69
3. MESQKEARTLQEPVARPSGASSSQTPNDKERREGGAVPAAAALGAEADDDSADGLWELPVEPAERRPECTRCSRPQKVCLCPFLPAHPLHISTHLYIIQHPAEENKVLRTVPLLAACLPQDKCKVKIGRRFSEERDPELSTVCRKSGTLILYPGAEAANLEEFILDSPVYPSTIIIIDGTWSQAKDIFYKNSLFRHPKQVQLKTSISSQYVIRMQPTNRCLSTLECAAVALSILEKNNYIQETLLRPLQALCSFQLQHGAQIRLSKEHLLKNGLYPKPMPKNKRKLRKMELLMNSVKI [DTWD2]  0.37
4. MEAVVNLYQEVMKHADPRIQGYPLMGSPLLMTSILLTYVYFVLSLGPRIMANRKPFQLRGFMIVYNFSLVALSLYIVYEFLMSGWLSTYTWRCDPVDYSNSPEALRMVRVAWLFLFSKFIELMDTVIFILRKKDGQVTFLHVFHHSVLPWSWWWGVKIAPGGMGSFHAMINSSVHVIMYLYYGLSAFGPVAQPYLWWKKHMTAIQLIQFVLVSLHISQYYFMSSCNYQYPVIIHLIWMYGTIFFMLFSNFWYHSYTKGKRLPRALQQNGAPGIAKVKAN [ELOVL1]  2.04
5. MWSAGRGGAAWPVLLGLLLALLVPGGGAAKTGAELVTCGSVLKLLNTHHRVRLHSHDIKYGSGSGQQSVTGVEASDDANSYWRIRGGSEGGCPRGSPVRCGQAVRLTHVLTGKNLHTHHFPSPLSNNQEVSAFGEDGEGDDLDLWTVRCSGQHWEREAAVRFQHVGTSVFLSVTGEQYGSPIRGQHEVHGMPSANTHNTWKAMEGIFIKPSVEPSAGHDEL [SDF2L1]  4.06

Same assay, conditions: cell cycle stage: mitosis

In order of rising thermal stability score:
1. MAGRVPSLLVLLVFPSSCLAFRSPLSVFKRFKETTRPFSNECLGTTRPVVPIDSSDFALDIRMPGVTPKQSDTYFCMSMRIPVDEEAFVIDFKPRASMDTVHHMLLFGCNMPSSTGSYWFCDEGTCTDKANILYAWARNAPPTRLPKGVGFRVGGETGSKYFVLQVHYGDISAFRDNNKDCSGVSLHLTRLPQPLIAGMYLMMSVDTVIPAGEKVVNSDISCHYKNYPMHVFAYRVHTHHLGKVVSGYRVRNGQWTLIGRQSPQLPQAFYPVGHPVDVSFGDLLAARCVFTGEGRTEATHIGGTSSDEMCNLYIMYYMEAKHAVSFMTCTQNVAPDMFRTIPPEANIPIPVKSDMVMMHEHHKETEYKDKIPLLQQPKREEEEVLDQGDFYSLLSKLLGEREDVVHVHKYNPTEKAESESDLVAEIANVVQKKDLGRSDAREGAEHERGNAILVRDRIHKFHRLVSTLRPPESRVFSLQQPPPGEGTWEPEHTGDFHMEEALDWPGVYLLPGQVSGVALDPKNNLVIFHRGDHVWDGNSFDSKFVYQQIGLGPIEEDTILVIDPNNAAVLQSSGKNLFYLPHGLSIDKDGNYWVTDVALHQVFKLDPNNKEGPVLILGRSMQPGSDQNHFCQPTDVAVDPGTGAIYVSDGYCNSRIVQFSPSGKFITQWGEESSGSSPLPGQFTVPHSLALVPLLGQLCVADRENGRIQCFKTDTKEFVREIKHSSFGRNVFAISYIPGLLFAVNGKPHFGDQEPVQGFVMNFSNGEIIDIFKPVRKHFDMPHDIVASEDGTVYIGDAHTNTVWKFTLTEKLEHRSVKKAGIEVQEIKEAEAVVETKMENKPTSSELQKMQEKQKLIKEPGSGVPVVLITTLLVIPVVVLLAIAIFIRWKKSRAFGDSEHKLETSSGRVLGRFRGKGSGGLNLGNFFASRKGYSRKGFDRLSTEGSDQEKEDDGSESEEEYSAPLPALAPSSS [PAM]  -2.21
2. MSGTRASNDRPPGAGGVKRGRLQQEAAATGSRVTVVLGAQWGDEGKGKVVDLLATDADIISRCQGGNNAGHTVVVDGKEYDFHLLPSGIINTKAVSFIGNGVVIHLPGLFEEAEKNEKKGLKDWEKRLIISDRAHLVFDFHQAVDGLQEVQRQAQEGKNIGTTKKGIGPTYSSKAARTGLRICDLLSDFDEFSSRFKNLAHQHQSMFPTLEIDIEGQLKRLKGFAERIRPMVRDGVYFMYEALHGPPKKILVEGANAALLDIDFGTYPFVTSSNCTVGGVCTGLGIPPQNIGDVYGVVKAYTTRVGIGAFPTEQINEIGGLLQTRGHEWGVTTGRKRRCGWLDLMILRYAHMVNGFTALALTKLDILDVLGEVKVGVSYKLNGKRIPYFPANQEMLQKVEVEYETLPGWKADTTGARRWEDLPPQAQNYIRFVENHVGVAVKWVGVGKSRESMIQLF [ADSSL1]  -2.13
3. MESQKEARTLQEPVARPSGASSSQTPNDKERREGGAVPAAAALGAEADDDSADGLWELPVEPAERRPECTRCSRPQKVCLCPFLPAHPLHISTHLYIIQHPAEENKVLRTVPLLAACLPQDKCKVKIGRRFSEERDPELSTVCRKSGTLILYPGAEAANLEEFILDSPVYPSTIIIIDGTWSQAKDIFYKNSLFRHPKQVQLKTSISSQYVIRMQPTNRCLSTLECAAVALSILEKNNYIQETLLRPLQALCSFQLQHGAQIRLSKEHLLKNGLYPKPMPKNKRKLRKMELLMNSVKI [DTWD2]  0.624
4. MWSAGRGGAAWPVLLGLLLALLVPGGGAAKTGAELVTCGSVLKLLNTHHRVRLHSHDIKYGSGSGQQSVTGVEASDDANSYWRIRGGSEGGCPRGSPVRCGQAVRLTHVLTGKNLHTHHFPSPLSNNQEVSAFGEDGEGDDLDLWTVRCSGQHWEREAAVRFQHVGTSVFLSVTGEQYGSPIRGQHEVHGMPSANTHNTWKAMEGIFIKPSVEPSAGHDEL [SDF2L1]  1.19
5. MEAVVNLYQEVMKHADPRIQGYPLMGSPLLMTSILLTYVYFVLSLGPRIMANRKPFQLRGFMIVYNFSLVALSLYIVYEFLMSGWLSTYTWRCDPVDYSNSPEALRMVRVAWLFLFSKFIELMDTVIFILRKKDGQVTFLHVFHHSVLPWSWWWGVKIAPGGMGSFHAMINSSVHVIMYLYYGLSAFGPVAQPYLWWKKHMTAIQLIQFVLVSLHISQYYFMSSCNYQYPVIIHLIWMYGTIFFMLFSNFWYHSYTKGKRLPRALQQNGAPGIAKVKAN [ELOVL1]  1.9

The sequences below were run on HeLa Kyoto (assay: solubility in G1/S (NP-40 vs SDS abundance) (log2 ratio); higher = more soluble). Conditions: cell cycle stage: G1/S.

“MEKYHVLEMIGEGSFGRVYKGRRKYSAQVVALKFIPKLGRSEKELRNLQREIEIMRGLRHPNIVHMLDSFETDKEVVVVTDYAEGELFQILEDDGKLPEDQVQAIAAQLVSALYYLHSHRILHRDMKPQNILLAKGGGIKLCDFGFARAMSTNTMVLTSIKGTPLYMSPELVEERPYDHTADLWSVGCILYELAVGTPPFYATSIFQLVSLILKDPVRWPSTISPCFKNFLQGLLTKDPRQRLSWPDLLYHPFIAGHVTIITEPAGPDLGTPFTSRLPPELQVLKDEQAHRLAPKGNQSRILTQAYKRMAEEAMQKKHQNTGPALEQEDKTSKVAPGTAPLPRLGATPQESSLLAGILASELKSSWAKSGTGEVPSAPRENRTTPDCERAFPEERPEVLGQRSTDVVDLENEEPDSDNEWQHLLETTEPVPIQLKAPLTLLCNPDFCQRIQSQLHEAGGQILKGILEGASHILPAFRVLSSLLSSCSDSVALYSFCREAGLPGLLLSLLRHSQESNSLQQQSWYGTFLQDLMAVIQAYFACTFNLERSQTSDSLQVFQEAANLFLDLLGKLLAQPDDSEQTLRRDSLMCFTVLCEAMDGNSRAISKAFYSSLLTTQQVVLDGLLHGLTVPQLPVHTPQGAPQVSQPLREQSEDIPGAISSALAAICTAPVGLPDCWDAKEQVCWHLANQLTEDSSQLRPSLISGLQHPILCLHLLKVLYSCCLVSEGLCRLLGQEPLALESLFMLIQGKVKVVDWEESTEVTLYFLSLLVFRLQNLPCGMEKLGSDVATLFTHSHVVSLVSAAACLLGQLGQQGVTFDLQPMEWMAAATHALSAPAEVRLTPPGSCGFYDGLLILLLQLLTEQGKASLIRDMSSSEMWTVLWHRFSMVLRLPEEASAQEGELSLSSPPSPEPDWTLISPQGMAALLSLAMATFTQEPQLCLSCLSQHGSILMSILKHLLCPSFLNQLRQAPHGSEFLPVVVLSVCQLLCFPFALDMDADLLIGVLADLRDSEVAAHLLQVCCYHLPLMQVELPISLLTRLALMDPTSLNQFVNTVSASPRTIVSFLSVALLSDQPLLTSDLLSLLAHTARVLSPSHLSFIQELLAGSDESYRPLRSLLGHPENSVRAHTYRLLGHLLQHSMALRGALQSQSGLLSLLLLGLGDKDPVVRCSASFAVGNAAYQAGPLGPALAAAVPSMTQLLGDPQAGIRRNVASALGNLGPEGLGEELLQCEVPQRLLEMACGDPQPNVKEAALIALRSLQQEPGIHQVLVSLGASEKLSLLSLGNQSLPHSSPRPASAKHCRKLIHLLRPAHSM [STK36]” was tested, and the “solubility in G1/S (log2)” value was -0.178.

Each sequence was assayed on HeLa Kyoto (assay: melting temperature (median over replicates), in situ; higher = more thermally stable). Conditions: cell cycle stage: G1/S.

“MSGTRASNDRPPGAGGVKRGRLQQEAAATGSRVTVVLGAQWGDEGKGKVVDLLATDADIISRCQGGNNAGHTVVVDGKEYDFHLLPSGIINTKAVSFIGNGVVIHLPGLFEEAEKNEKKGLKDWEKRLIISDRAHLVFDFHQAVDGLQEVQRQAQEGKNIGTTKKGIGPTYSSKAARTGLRICDLLSDFDEFSSRFKNLAHQHQSMFPTLEIDIEGQLKRLKGFAERIRPMVRDGVYFMYEALHGPPKKILVEGANAALLDIDFGTYPFVTSSNCTVGGVCTGLGIPPQNIGDVYGVVKAYTTRVGIGAFPTEQINEIGGLLQTRGHEWGVTTGRKRRCGWLDLMILRYAHMVNGFTALALTKLDILDVLGEVKVGVSYKLNGKRIPYFPANQEMLQKVEVEYETLPGWKADTTGARRWEDLPPQAQNYIRFVENHVGVAVKWVGVGKSRESMIQLF [ADSSL1]” showed a melting temperature of 55.3 °C.

From the supplement of paper PMC5998384
